Reference: paper PMC8567388

Legend:
[1] = target: PSD-95 PDZ1 6xHis (human); experiment: ITC
[2] = target: PSD-95 PDZ1-2 6xHis (human); experiment: ITC

Kd [1]: 100 µM
Kd [2]: 12 µM
B1: Stargazin_CT (aa 203-323) (domain or fragment)
chain: DRHKQLRATARATDYLQASAITRIPSYRYRYQRRSRSSSRSTEPSHSRDASPVGVKGFNTLPSTEISMYTLSRDPLKAATTPTATYNSDRDNSFLQVHNCIQKDSKDSLHANTANRRTTPV
